US20220054617A1 (REGENTS OF THE UNIVERSITY OF MINNESOTA, published 2022)

B1: DENV-3 antigen (other)
chain: SNALKGMSYAMCTNTFVLKKEVSETQHGTILIKVEYKGEDAPCKIPFSTEDGQGKAHNGRLITANPVVTKKEEPVNIEAEPPFGESNIVIGIGDNALKINWYKK
B2: DENV-4 antigen (other)
chain: SNAIKGMSYTMCSGKFSIDKEMAETQHGTTVVKVKYEGTGAPCKVPIEIRDVNKEKVVGRIISSTPFAENTNSVTNIELEPPFGDSYIVIGVGDSALTLHWFR
B3: DENV-1 antigen (other)
chain: SNALKGVSYVMCTGSFKLEKEVAETQHGTVLVQVKYEGTDAPCKIPISTQDEKGVTQNGRLITANPIVTDKEKPVNIETEPPFGESYIVIGAGEKALKLSWFK
notes: also called DENV-1 Ag

Experiments:
Assay in all cases: size exclusion chromatography of the tetravalent antigen mixture without adjuvant
DENV-2 antigen = DENV-2 antigen (dengue virus serotype 2 (DENV-2), UniProt P14337 573-674)
DENV-3 antigen = molecular target: B1
DENV-4 antigen = molecular target: B2

## B1
DENV-2 antigen
  binding result: no binding

## B2
DENV-2 antigen
  binding result: no binding
DENV-3 antigen
  binding result: no binding

## B3
DENV-2 antigen
  binding result: no binding
DENV-3 antigen
  binding result: no binding
DENV-4 antigen
  binding result: no binding
